Patent US11767343B2, “Peptide probe for recognition of G-quadruplex and use thereof in detection of G-quadruplex in cell” (Changzhi Medical College, priority 2020, dated 2023)
Read-outs that look alike come from different tables or passages of the source. One block for each molecule: values may come before it.

What was measured:
[1] = system: parallel and nonparallel G4s; experiment: ELISA comparison of G4 binding affinity between G4P and monomeric RHAU23; conditions: FIG. 3
Description: (§1) The annealed oligonucleotides were immobilized on a streptavidin-coated plate (Sigma-Aldrich), followed by incubating with G4P or RHAU23 at the indicated concentrations. Detection of bound proteins used an anti-FLAG Mouse Monoclonal Antibody (Transgen Biotech, China), an HRP Conjugated Goat Anti-Mouse IgG (H+L) secondary antibody (Transgen Biotech, China), and a TMB ELISA Substrate (Transgen Biotech, China) according to the manufacturer's instructions. Absorbance was measured at 450 nm on a Multi-Plate Reader (Biotek, USA). Dissociation constants (Kd) were obtained from the binding curves. The standard error of mean values was calculated from three replicates.
A comparison of G4 binding affinity between G4P and a monomeric RHAU23 was further performed. A G4P comprising only one G4-binding domain was termed monomeric RHAU23.

DNA of G4 (GGGT)4 = experiment: Non-denaturing polyacrylamide gel electrophoresis of G4 DNA binding to proteins; conditions: for binding to G4 DNAs (new slower band): protein:DNA 2:1 and 6:1, 100 nM G4 DNA, gel with 75 mM KCl
Description: After the culture was incubated until OD reach 0.5, the culture was induced with 0.8 mM IPTG and kept for 4 h at 37° C., followed by protein extraction and purification to obtain the proteins monomer, G4P, triplex, and tetrad. The protein extraction was performed by using Capturem™ His-Tagged Purification Miniprep Kit (TAKARA).
The obtained proteins were mixed with the DNA of G4 at a molar concentration ratio of 2:1 and 6:1, respectively, where the DNA of G4 comprises a sequence of (GGGT)4 (SEQ ID NO: 74), with a concentration of 100 nM. The G4 DNAs binding to the proteins were electrophoresed in a non-denaturing polyacrylamide gel containing 75 mM KCl. […] The G4 DNAs moved slower after binding to the proteins, thereby yielding a new band.

2G DNA + 2G RNA = experiment: ELISA binding of G4P to immobilized biotinylated oligonucleotide; conditions: 2/2 DNA/RNA Hybrid G4, Parallel, read-out: Kd (nM) ± SD
Description: as §1

3G DNA + 1G RNA = experiment: as above; conditions: 3/1 DNA/RNA Hybrid G4, Parallel, read-out: Kd (nM) ± SD
Description: as §1

ABTB2 = experiment: as above; conditions: G4, GVBQ, read-out: Kd (nM) ± SD
Description: as §1

Bcl2 = experiment: as above; conditions: G4, Mixed parallel and antiparallel, read-out: Kd (nM) ± SD
Description: as §1

C20orf24 = experiment: as above; conditions: G4, Mixed parallel and antiparallel, read-out: Kd (nM) ± SD
Description: as §1

C9orf72 = experiment: as above; conditions: G4, Antiparallel, read-out: Kd (nM) ± SD
Description: as §1

CSTB = experiment: as above; conditions: G4, Parallel, read-out: Kd (nM) ± SD
Description: as §1

DRD3 = experiment: as above; conditions: G4, Antiparallel, read-out: Kd (nM) ± SD
Description: as §1

HRAS1 = experiment: as above; conditions: G4, Antiparallel, read-out: Kd (nM) ± SD
Description: as §1

HT = experiment: as above; conditions: G4, Mixed parallel and antiparallel, read-out: Kd (nM) ± SD
Description: as §1

MYOG = experiment: as above; conditions: G4, GVBQ, read-out: Kd (nM) ± SD
Description: as §1

NRAS RNA = experiment: as above; conditions: G4, read-out: Kd (nM) ± SD
Description: as §1

SPB1 = experiment: as above; conditions: G4, Antiparallel, read-out: Kd (nM) ± SD
Description: as §1

T2B-1 = experiment: as above; conditions: G4, Bulge, Parallel, read-out: Kd (nM) ± SD
Description: as §1

TBA = experiment: as above; conditions: G4, Antiparallel, read-out: Kd (nM) ± SD
Description: as §1

TERRA3G = experiment: as above; conditions: intermolecular G4, Parallel, read-out: Kd (nM) ± SD
Description: as §1

TERRA = experiment: as above; conditions: G4, Parallel, read-out: Kd (nM) ± SD
Description: as §1

c-MYC = experiment: as above; conditions: G4, Parallel, read-out: Kd (nM) ± SD
Description: as §1

hTel-3G = experiment: as above; conditions: intermolecular G4, Mixed parallel and antiparallel, read-out: Kd (nM) ± SD
Description: as §1

hTel = experiment: as above; conditions: G4, Mixed parallel and antiparallel, read-out: Kd (nM) ± SD
Description: as §1

G4s = experiment: ELISA binding, summary over the 21 G4s
Description: as §1
(§2) Therefore, the following were searched for PQSs of the three well-characterized non-canonical G4s, i.e. G4s with one loop of 8-15 nucleotides (4GL15), G-vacancy-bearing G4s (GVBQ), G4 with a bulge (Bulge), respectively. The G4P had no binding to the non-G4 DNAs or RNAs, including single-stranded DNA (ssDNA), RNA hairpin, DNA: RNA heteroduplex, and i-motif.

non-G4 DNAs or RNAs = experiment: ELISA binding, summary over non-G4 controls; conditions: ssDNA, RNA hairpin, DNA: RNA heteroduplex, i-motif
Description: as §1, §2

B1: RHAU23: G4P comprising only one G4-binding domain RHAU23; amino acid sequence SEQ ID NO: 5 (protein)
chain: MGSSHHHHHHSSGLVPRGSHMHPGHLKGREIGMWYAKKQGQKNKGTGSGADYKDHDGDYKDHDIDYKDDDDK
modifications: Fully synthetic
discrimination between parallel and nonparallel G4s in binding [1]: only binds parallel, but not nonparallel G4s

binding to G4 DNAs (new slower band) (DNA of G4 (GGGT)4): binding ability
B2: tetrad: Protein comprising four binding domains RHAU23; amino acid sequence SEQ ID NO: 7 (protein)
chain: MGSSHHHHHHSSGLVPRGSHMHPGHLKGREIGMWYAKKQGQKNKGTGSGAGTGSGAGTGSGAHPGHLKGREIGMWYAKKQGQKNKGTGSGAGTGSGAGTGSGAHPGHLKGREIGMWYAKKQGQKNKGTGSGAGTGSGAGTGSGAHPGHLKGREIGMWYAKKQGQKNKGTGSGADYKDHDGDYKDHDIDYKDDDDK
modifications: Fully synthetic

B3: G4P: Polypeptide probe: two RHAU23 G4-binding domains, linker of three GTGSGA hexapeptides, C-terminal 3xFLAG tag, N-terminal HIS tag; SEQ ID NO: 4 (protein)
chain: MGSSHHHHHHSSGLVPRGSHMHPGHLKGREIGMWYAKKQGQKNKGTGSGAGTGSGAGTGSGAHPGHLKGREIGMWYAKKQGQKNKGTGSGADYKDHDGDYKDHDIDYKDDDDK
modifications: Fully synthetic
Kd (2G DNA + 2G RNA): 0.42 ± 0.06 nM | Kd (3G DNA + 1G RNA): 0.59 ± 0.1 nM | Kd (ABTB2): 0.59 ± 0.04 nM | Kd (Bcl2): 0.9 ± 0.08 nM | Kd (C20orf24): 0.35 ± 0.03 nM | Kd (C9orf72): 1.89 ± 0.21 nM | Kd (CSTB): 0.37 ± 0.03 nM | Kd (DRD3): 0.31 ± 0.03 nM | Kd (HRAS1): 3.11 ± 0.25 nM | Kd (HT): 0.79 ± 0.05 nM | Kd (MYOG): 0.82 ± 0.05 nM | Kd (NRAS RNA): 0.48 ± 0.03 nM | Kd (SPB1): 2.83 ± 0.15 nM | Kd (T2B-1): 0.34 ± 0.02 nM | Kd (TBA): 1.71 ± 0.1 nM | Kd (TERRA3G): 0.83 ± 0.05 nM | Kd (TERRA): 1.44 ± 0.11 nM | Kd (c-MYC): 0.99 ± 0.1 nM | Kd (hTel-3G): 0.71 ± 0.05 nM | Kd (hTel): 0.37 ± 0.03 nM | Kd (G4s; 5 of the 21 G4s, read-out: Kd to 5 G4s): 1 to 3 nM | Kd to 16 G4s (G4s; 16 of the 21 G4s): sub-nM | Kd (G4s; range over the 21 G4s, read-out: Kd values for these G4s): 0.31 to 3.11 nM | binding to the non-G4 DNAs or RNAs (non-G4 DNAs or RNAs): no binding | discrimination between parallel and nonparallel G4s in binding [1]: almost no discrimination between the parallel and nonparallel G4 | relative affinity with G4s among the proteins (DNA of G4 (GGGT)4; compared among monomer, G4P, triplex, tetrad): highest affinity | binding to G4 DNAs (new slower band) (DNA of G4 (GGGT)4): binding ability

binding to G4 DNAs (new slower band) (DNA of G4 (GGGT)4): binding ability
B4: triplex: Protein comprising three binding domains RHAU23; amino acid sequence SEQ ID NO: 6 (protein)
chain: MGSSHHHHHHSSGLVPRGSHMHPGHLKGREIGMWYAKKQGQKNKGTGSGAGTGSGAGTGSGAHPGHLKGREIGMWYAKKQGQKNKGTGSGAGTGSGAGTGSGAHPGHLKGREIGMWYAKKQGQKNKGTGSGADYKDHDGDYKDHDIDYKDDDDK
modifications: Fully synthetic
